One substance from article doi:10.1101/2022.02.17.480908 can be followed below.

For orientation: stoichiometry N means the number of molecules, sites or subunits per partner or assembly.

For this assay, the target named is urea pre-unfolded MLucV (stable small aggregates) (firefly). Kind of assay: SEC-RALS.

Substance “urea pre-unfolded MLucV (stable small aggregates)” had a stoichiometry N of 12.
